Laboratory results as given in publication PMC9482650, “Quantitative fragmentomics allow affinity mapping of interactomes” (Nature Communications, 2022).

T1: APBA2_1, Q99767
T1 sequence (Q99767 563-664, limits assumed, looked up): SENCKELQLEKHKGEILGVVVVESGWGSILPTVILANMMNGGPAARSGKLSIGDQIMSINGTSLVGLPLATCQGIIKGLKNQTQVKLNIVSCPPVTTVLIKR

T2: APBA2_2, Q99767
T2 sequence (Q99767 654-744, limits assumed, looked up): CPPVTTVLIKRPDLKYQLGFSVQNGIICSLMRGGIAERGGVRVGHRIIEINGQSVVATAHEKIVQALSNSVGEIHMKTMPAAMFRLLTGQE

T3: ARHGAP21, Q5T5U3
T3 sequence (Q5T5U3 45-169, limits assumed, looked up): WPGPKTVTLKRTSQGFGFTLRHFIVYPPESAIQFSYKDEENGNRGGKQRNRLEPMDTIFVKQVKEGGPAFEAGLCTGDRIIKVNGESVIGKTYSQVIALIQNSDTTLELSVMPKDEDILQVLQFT

T4: DFNB31_2, Q9P202
T4 sequence (Q9P202 274-371, limits assumed, looked up): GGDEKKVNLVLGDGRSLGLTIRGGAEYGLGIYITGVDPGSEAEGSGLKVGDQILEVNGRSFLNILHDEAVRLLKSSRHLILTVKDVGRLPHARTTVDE

T5: DLG3_1, Q92796
T5 sequence (Q92796 125-227, limits assumed, looked up): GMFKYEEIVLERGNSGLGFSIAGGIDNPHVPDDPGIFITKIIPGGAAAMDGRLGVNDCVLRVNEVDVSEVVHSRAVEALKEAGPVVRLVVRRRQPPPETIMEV

T6: GRIP1_7, Q9Y3R0
T6 sequence (Q9Y3R0 999-1096, limits assumed, looked up): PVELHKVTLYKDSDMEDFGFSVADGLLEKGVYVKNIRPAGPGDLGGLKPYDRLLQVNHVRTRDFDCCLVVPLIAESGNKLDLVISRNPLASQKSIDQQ

T7: LRRC7, Q96NW7
T7 sequence (Q96NW7 1440-1537, limits assumed, looked up): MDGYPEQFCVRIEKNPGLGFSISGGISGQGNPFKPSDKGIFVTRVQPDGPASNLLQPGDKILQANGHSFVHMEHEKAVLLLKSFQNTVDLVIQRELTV

T8: NHERF3_1, Q5T2W1
T8 sequence (Q5T2W1 4-100, limits assumed, looked up): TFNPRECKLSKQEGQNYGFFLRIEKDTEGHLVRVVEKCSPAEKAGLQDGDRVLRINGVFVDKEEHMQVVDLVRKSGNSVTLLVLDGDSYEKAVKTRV

T9: NHERF3_3, Q5T2W1
T9 sequence (Q5T2W1 238-333, limits assumed, looked up): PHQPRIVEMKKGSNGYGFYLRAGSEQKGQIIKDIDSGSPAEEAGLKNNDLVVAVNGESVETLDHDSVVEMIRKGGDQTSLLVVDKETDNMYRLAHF

T10: NHERF3_4, Q5T2W1
T10 sequence (Q5T2W1 373-468, limits assumed, looked up): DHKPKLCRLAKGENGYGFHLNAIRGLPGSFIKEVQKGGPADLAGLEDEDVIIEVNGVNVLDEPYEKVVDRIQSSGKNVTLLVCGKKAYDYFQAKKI

T11: PTPN13_1, Q12923
T11 sequence (Q12923 1088-1188, limits assumed, looked up): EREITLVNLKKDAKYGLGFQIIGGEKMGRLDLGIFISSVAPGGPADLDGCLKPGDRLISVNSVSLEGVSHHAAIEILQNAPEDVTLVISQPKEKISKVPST

T12: SIPA1L2, Q9P2F8
T12 sequence (Q9P2F8 945-1036, limits assumed, looked up): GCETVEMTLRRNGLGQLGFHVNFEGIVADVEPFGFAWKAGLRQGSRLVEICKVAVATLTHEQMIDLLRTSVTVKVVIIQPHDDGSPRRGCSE


How the values were obtained:
Experiment in all cases: holdup assay
Parameters in all cases: key: below the threshold = too weak to quantify, mostly under pKd 3.1 to 4
Conditions in all cases: plain residues with an end cap or a label only (N-terminal biotin on a linker: ado-ado)
APBA2_1, Q99767 = biological target: T1, APBA2_1, Q99767
APBA2_2, Q99767 = biological target: T2, APBA2_2, Q99767
ARHGAP21, Q5T5U3 = biological target: T3, ARHGAP21, Q5T5U3
DFNB31_2, Q9P202 = biological target: T4, DFNB31_2, Q9P202
DLG1_2, Q12959 = biological target: DLG1_2, Q12959
DLG1_2, Q12959, sequence (Q12959 314-412): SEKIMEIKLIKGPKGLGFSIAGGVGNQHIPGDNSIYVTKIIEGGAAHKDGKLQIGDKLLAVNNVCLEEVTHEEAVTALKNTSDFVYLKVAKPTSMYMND

DLG1_3, Q12959 = biological target: DLG1_3, Q12959
DLG1_3, Q12959, sequence (Q12959 457-571): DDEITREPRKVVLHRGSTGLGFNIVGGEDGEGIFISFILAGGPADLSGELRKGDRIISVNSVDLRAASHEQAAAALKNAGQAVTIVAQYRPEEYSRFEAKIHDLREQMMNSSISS

DLG2_2, Q15700 = biological target: DLG2_2, Q15700
DLG2_2, Q15700, sequence (Q15700 189-283): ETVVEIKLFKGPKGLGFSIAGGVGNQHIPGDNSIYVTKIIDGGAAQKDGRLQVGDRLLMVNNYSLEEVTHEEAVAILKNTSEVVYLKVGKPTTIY

DLG3_1, Q92796 = biological target: T5, DLG3_1, Q92796
FRMPD2_1, Q68DX3 = biological target: FRMPD2_1, Q68DX3
FRMPD2_1, Q68DX3, sequence (Q68DX3 770-861): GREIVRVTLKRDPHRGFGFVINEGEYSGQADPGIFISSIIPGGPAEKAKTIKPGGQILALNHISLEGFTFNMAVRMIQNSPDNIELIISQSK

FRMPD4, Q14CM0 = biological target: FRMPD4, Q14CM0
FRMPD4, Q14CM0, sequence (Q14CM0 67-160): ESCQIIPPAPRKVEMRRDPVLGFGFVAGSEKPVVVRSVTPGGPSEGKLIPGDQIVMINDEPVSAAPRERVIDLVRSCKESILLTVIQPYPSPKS

GIPC2, Q8TF65 = biological target: GIPC2, Q8TF65
GIPC2, Q8TF65, sequence (Q8TF65 112-203): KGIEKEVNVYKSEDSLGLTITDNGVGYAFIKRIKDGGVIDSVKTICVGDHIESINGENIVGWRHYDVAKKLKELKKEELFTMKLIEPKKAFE

GRID2IP_1, A4D2P6 = biological target: GRID2IP_1, A4D2P6
GRID2IP_1, A4D2P6, sequence (A4D2P6 1-87): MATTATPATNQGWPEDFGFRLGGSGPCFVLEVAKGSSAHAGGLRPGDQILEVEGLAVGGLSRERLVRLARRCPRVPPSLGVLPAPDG

GRIP1_7, Q9Y3R0 = biological target: T6, GRIP1_7, Q9Y3R0
GRIP2_7, Q9C0E4 = biological target: GRIP2_7, Q9C0E4
GRIP2_7, Q9C0E4, sequence (Q9C0E4 934-1023): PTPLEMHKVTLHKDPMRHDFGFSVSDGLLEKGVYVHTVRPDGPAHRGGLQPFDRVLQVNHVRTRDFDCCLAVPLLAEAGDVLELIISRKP

HTRA2, O43464 = biological target: HTRA2, O43464
HTRA2, O43464, sequence (O43464 355-458): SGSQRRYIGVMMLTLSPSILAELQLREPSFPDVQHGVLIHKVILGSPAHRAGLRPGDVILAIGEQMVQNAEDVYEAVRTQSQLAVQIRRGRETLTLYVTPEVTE

IL16_4, Q14005 = biological target: IL16_4, Q14005
IL16_4, Q14005, sequence (Q14005 1229-1329): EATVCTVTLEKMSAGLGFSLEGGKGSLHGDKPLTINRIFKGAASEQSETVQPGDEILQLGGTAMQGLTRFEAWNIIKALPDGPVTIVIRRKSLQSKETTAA

Inadl_2, Q8NI35 = biological target: Inadl_2, Q8NI35
Inadl_2, Q8NI35, sequence (Q8NI35 238-335): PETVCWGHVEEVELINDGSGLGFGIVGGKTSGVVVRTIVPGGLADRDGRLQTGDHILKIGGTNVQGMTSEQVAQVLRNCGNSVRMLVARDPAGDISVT

Inadl_5, Q8NI35 = biological target: Inadl_5, Q8NI35
Inadl_5, Q8NI35, sequence (Q8NI35 673-780): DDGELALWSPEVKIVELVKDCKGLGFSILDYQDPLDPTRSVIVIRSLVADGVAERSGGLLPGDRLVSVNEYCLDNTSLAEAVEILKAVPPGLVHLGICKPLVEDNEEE

LRRC7, Q96NW7 = biological target: T7, LRRC7, Q96NW7
MAGI2_2, Q86UL8 = biological target: MAGI2_2, Q86UL8
MAGI2_2, Q86UL8, sequence (Q86UL8 410-522): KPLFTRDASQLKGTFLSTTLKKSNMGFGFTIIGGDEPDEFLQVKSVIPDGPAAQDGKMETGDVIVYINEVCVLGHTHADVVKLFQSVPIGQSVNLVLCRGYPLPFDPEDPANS

MAGI2_3, Q86UL8 = biological target: MAGI2_3, Q86UL8
MAGI2_3, Q86UL8, sequence (Q86UL8 600-682): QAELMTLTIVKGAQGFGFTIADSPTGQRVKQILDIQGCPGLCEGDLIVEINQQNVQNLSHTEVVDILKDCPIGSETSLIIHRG

NHERF3_1, Q5T2W1 = biological target: T8, NHERF3_1, Q5T2W1
NHERF3_3, Q5T2W1 = biological target: T9, NHERF3_3, Q5T2W1
NHERF3_4, Q5T2W1 = biological target: T10, NHERF3_4, Q5T2W1
PTPN13_1, Q12923 = biological target: T11, PTPN13_1, Q12923
SIPA1L2, Q9P2F8 = biological target: T12, SIPA1L2, Q9P2F8

| Binder | pKd (APBA2_1, Q99767) | pKd (APBA2_2, Q99767) | pKd (ARHGAP21, Q5T5U3) | pKd (DFNB31_2, Q9P202) | pKd (DLG1_2, Q12959) | pKd (DLG1_3, Q12959) | pKd (DLG2_2, Q15700) | pKd (DLG3_1, Q92796) | pKd (FRMPD2_1, Q68DX3) | pKd (FRMPD4, Q14CM0) | pKd (GIPC2, Q8TF65) | pKd (GRID2IP_1, A4D2P6) | pKd (GRIP1_7, Q9Y3R0) | pKd (GRIP2_7, Q9C0E4) | pKd (HTRA2, O43464) | pKd (IL16_4, Q14005) | pKd (Inadl_2, Q8NI35) | pKd (Inadl_5, Q8NI35) | pKd (LRRC7, Q96NW7) | pKd (MAGI2_2, Q86UL8) | other results |
| --- | --- | --- | --- | --- | --- | --- | --- | --- | --- | --- | --- | --- | --- | --- | --- | --- | --- | --- | --- | --- | --- |
| QKNKDREYYV [NRXN3, Q9HDB5] | below the threshold | below the threshold | 4.2 | below the threshold | below the threshold | below the threshold | below the threshold | below the threshold | 3.7 | 4.4 | 3.52 | below the threshold | 4.62 | 4.89 | 4.02 | below the threshold | 4.97 | 4.64 | below the threshold | 4.32 | pKd (MAGI2_3, Q86UL8): below the threshold; pKd (NHERF3_1, Q5T2W1): 4.61; pKd (NHERF3_3, Q5T2W1): below the threshold; pKd (NHERF3_4, Q5T2W1): below the threshold; pKd (PTPN13_1, Q12923): below the threshold; pKd (SIPA1L2, Q9P2F8): below the threshold |
| VYEVPVETKF [SLC26A3, P40879] | below the threshold | below the threshold | below the threshold | below the threshold | 3.59 | 3.6 | below the threshold | below the threshold | below the threshold | 3.65 | 3.53 | below the threshold | below the threshold | below the threshold | below the threshold | below the threshold | below the threshold | below the threshold | below the threshold | below the threshold | pKd (MAGI2_3, Q86UL8): below the threshold; pKd (NHERF3_1, Q5T2W1): 5.51; pKd (NHERF3_3, Q5T2W1): 4.16; pKd (NHERF3_4, Q5T2W1): 4.15; pKd (PTPN13_1, Q12923): below the threshold; pKd (SIPA1L2, Q9P2F8): below the threshold |
| PSDSVGKDVF [EGLN1, Q9GZT9] | below the threshold | below the threshold | 3.47 | below the threshold | below the threshold | below the threshold | below the threshold | below the threshold | below the threshold | below the threshold | below the threshold | below the threshold | below the threshold | below the threshold | below the threshold | 3.63 | below the threshold | below the threshold | below the threshold | below the threshold | pKd (MAGI2_3, Q86UL8): below the threshold; pKd (NHERF3_1, Q5T2W1): below the threshold; pKd (NHERF3_3, Q5T2W1): below the threshold; pKd (NHERF3_4, Q5T2W1): below the threshold; pKd (PTPN13_1, Q12923): below the threshold; pKd (SIPA1L2, Q9P2F8): below the threshold |
| THREVKFTSL [CD46, P15529] | below the threshold | below the threshold | below the threshold | 4.28 | 3.88 | 3.75 | 3.57 | below the threshold | below the threshold | 4.16 | below the threshold | below the threshold | below the threshold | below the threshold | below the threshold | 3.88 | below the threshold | below the threshold | below the threshold | 3.88 | pKd (MAGI2_3, Q86UL8): below the threshold; pKd (NHERF3_1, Q5T2W1): 5.18; pKd (NHERF3_3, Q5T2W1): below the threshold; pKd (NHERF3_4, Q5T2W1): 4.6; pKd (PTPN13_1, Q12923): below the threshold; pKd (SIPA1L2, Q9P2F8): below the threshold |
